Measurements from US20240270846A1 (published 2024).
Positions count from the first letter of the chain named. Names may count otherwise.

B1: GLS3000 G89Y one-amino acid altered one-arm antibody (CE115HA000-pE22Hh / Kn010G3 / GLS3000 G89Y-kappa) (antibody, human IgG1, kappa, L234A L235A, N297A, name in Kabat numbering)
heavy: QVQLVESGGGVVQPGRSLRLSCAASGFTFSNAWMHWVRQAPGKGLEWVAQIKAKSNNYATYYAESVKGRFTISRDDSKNSLYLQMNSLKTEDTAVYYCRYVHYGAYYGVDAWGQGTTVTVSSASTKGPSVFPLAPSSKSTSGGTAALGCLVKDYFPEPVTVSWNSGALTSGVHTFPAVLQSSGLYSLSSVVTVPSSSLGTQTYICNVNHKPSNTKVDKKVEPKSCDKTHTCPPCPAPEAAGGPSVFLFPPKPKDTLMISRTPEVTCVVVDVSHEDPEVKFNWYVDGVEVHNAKTKPREEQYASTYRVVSVLTVLHQDWLNGKEYKCKVSNKALPAPIEKTISKAKGQPREPQVYTLPPSRCELTKNQVSLSCAVKGFYPSDIAVEWESNGQPENNYKTTPPVLDSDGSFFLVSKLTVDKSRWQQGNVFSCSVMHEALHNHYTQKSLSLSPDYKDDDDK
chain: EPKSSDKTHTCPPCPAPELLGGPSVFLFPPKPKDTLMISRTPEVTCVVVDVSHEDPEVKFNWYVDGVEVHNAKTKPREEQYNSTYRVVSVLTVLHQDWLNGKEYKCKVSNKALPAPIEKTISKAKGQPREPQVCTLPPSRDELTKNQVSLWCLVKGFYPSDIAVEWESNGQPENNYKTTPPVLDSDGSFFLYSKLTVDKSRWQQGNVFSCSVMHEALHNRYTQKSLSLSP
light: DIVMTQSPLSLPVTPGEPASISCRSSQSLVHSNRNTYLHWYQQKPGQAPRLLIYKVSNRFSGVPDRFSGSGSGTDFTLKISRVEAEDVGVYYCYQGTQVPYTFGQGTKLEIKRTVAAPSVFIFPPSDEQLKSGTASVVCLLNNFYPREAKVQWKVDNALQSGNSQESVTEQDSKDSTYSLSSTLTLSKADYEKHKVYACEVTHQGLSSPVTKSFNRGEC
notes: One-arm antibody; substitution position in Kabat numbering; also called L chain altered form, Kabat 89 G to Y
B2: GLS3000 T92S one-amino acid altered one-arm antibody (CE115HA000-pE22Hh / Kn010G3 / GLS3000 T92S-kappa) (antibody, human IgG1, kappa, L234A L235A, N297A, name in Kabat numbering)
heavy: B1 heavy
chain: B1 chain
light: B1 light with Y94G, T97S
notes: One-arm antibody; substitution position in Kabat numbering; also called L chain altered form, Kabat 92 T to S
B3: GLS3000 Q90S one-amino acid altered one-arm antibody (CE115HA000-pE22Hh / Kn010G3 / GLS3000 Q90S-kappa) (antibody, human IgG1, kappa, L234A L235A, N297A, name in Kabat numbering)
heavy: B1 heavy
chain: B1 chain
light: B1 light with Y94G, Q95S
notes: One-arm antibody; substitution position in Kabat numbering; also called L chain altered form, Kabat 90 Q to S
B4: GLS3000 V94R one-amino acid altered one-arm antibody (CE115HA000-pE22Hh / Kn010G3 / GLS3000 V94R-kappa) (antibody, human IgG1, kappa, L234A L235A, N297A, name in Kabat numbering)
heavy: B1 heavy
chain: B1 chain
light: B1 light with Y94G, V99R
notes: One-arm antibody; substitution position in Kabat numbering; also called L chain altered form, Kabat 94 V to R
B5: GLS3000 G89T one-amino acid altered one-arm antibody (CE115HA000-pE22Hh / Kn010G3 / GLS3000 G89T-kappa) (antibody, human IgG1, kappa, L234A L235A, N297A, name in Kabat numbering)
heavy: B1 heavy
chain: B1 chain
light: B1 light with Y94T
notes: One-arm antibody; substitution position in Kabat numbering; also called L chain altered form, Kabat 89 G to T
B6: GLS3000 R77S one-amino acid altered one-arm antibody (CE115HA000-pE22Hh / Kn010G3 / GLS3000 R77S-kappa) (antibody, human IgG1, kappa, L234A L235A, N297A, name in Kabat numbering)
heavy: B1 heavy
chain: B1 chain
light: B1 light with R82S, Y94G
notes: One-arm antibody; substitution position in Kabat numbering; also called L chain altered form, Kabat 77 R to S
B7: GLS3000 T97P one-amino acid altered one-arm antibody (CE115HA000-pE22Hh / Kn010G3 / GLS3000 T97P-kappa) (antibody, human IgG1, kappa, L234A L235A, N297A, name in Kabat numbering)
heavy: B1 heavy
chain: B1 chain
light: B1 light with Y94G, T102P
notes: One-arm antibody; substitution position in Kabat numbering; also called L chain altered form, Kabat 97 T to P
B8: GLS3000 G89Q one-amino acid altered one-arm antibody (CE115HA000-pE22Hh / Kn010G3 / GLS3000 G89Q-kappa) (antibody, human IgG1, kappa, L234A L235A, N297A, name in Kabat numbering)
heavy: B1 heavy
chain: B1 chain
light: B1 light with Y94Q
notes: One-arm antibody; substitution position in Kabat numbering; also called L chain altered form, Kabat 89 G to Q
B9: GLS3000 V94S one-amino acid altered one-arm antibody (CE115HA000-pE22Hh / Kn010G3 / GLS3000 V94S-kappa) (antibody, human IgG1, kappa, L234A L235A, N297A, name in Kabat numbering)
heavy: B1 heavy
chain: B1 chain
light: B1 light with Y94G, V99S
notes: One-arm antibody; substitution position in Kabat numbering; also called L chain altered form, Kabat 94 V to S
B10: GLS3000 G91P one-amino acid altered one-arm antibody (CE115HA000-pE22Hh / Kn010G3 / GLS3000 G91P-kappa) (antibody, human IgG1, kappa, L234A L235A, N297A, name in Kabat numbering)
heavy: B1 heavy
chain: B1 chain
light: B1 light with Y94G, G96P
notes: One-arm antibody; substitution position in Kabat numbering; also called L chain altered form, Kabat 91 G to P
B11: GLS3000 G89P one-amino acid altered one-arm antibody (CE115HA000-pE22Hh / Kn010G3 / GLS3000 G89P-kappa) (antibody, human IgG1, kappa, L234A L235A, N297A, name in Kabat numbering)
heavy: B1 heavy
chain: B1 chain
light: B1 light with Y94P
notes: One-arm antibody; substitution position in Kabat numbering; also called L chain altered form, Kabat 89 G to P
B12: GLS3000 Q93P one-amino acid altered one-arm antibody (CE115HA000-pE22Hh / Kn010G3 / GLS3000 Q93P-kappa) (antibody, human IgG1, kappa, L234A L235A, N297A, name in Kabat numbering)
heavy: B1 heavy
chain: B1 chain
light: B1 light with Y94G, Q98P
notes: One-arm antibody; substitution position in Kabat numbering; also called L chain altered form, Kabat 93 Q to P
B13: GLS3000 P95S one-amino acid altered one-arm antibody (CE115HA000-pE22Hh / Kn010G3 / GLS3000 P95S-kappa) (antibody, human IgG1, kappa, L234A L235A, N297A, name in Kabat numbering)
heavy: B1 heavy
chain: B1 chain
light: B1 light with Y94G, P100S
notes: One-arm antibody; substitution position in Kabat numbering; also called L chain altered form, Kabat 95 P to S
B14: GLS3000 K74T one-amino acid altered one-arm antibody (CE115HA000-pE22Hh / Kn010G3 / GLS3000 K74T-kappa) (antibody, human IgG1, kappa, L234A L235A, N297A, name in Kabat numbering)
heavy: B1 heavy
chain: B1 chain
light: B1 light with K79T, Y94G
notes: One-arm antibody; substitution position in Kabat numbering; also called L chain altered form, Kabat 74 K to T
B15: GLS3000 G89W one-amino acid altered one-arm antibody (CE115HA000-pE22Hh / Kn010G3 / GLS3000 G89W-kappa) (antibody, human IgG1, kappa, L234A L235A, N297A, name in Kabat numbering)
heavy: B1 heavy
chain: B1 chain
light: B1 light with Y94W
notes: One-arm antibody; substitution position in Kabat numbering; also called L chain altered form, Kabat 89 G to W

Each binder was assayed against T1, CD3 epsilon homodimer protein (UniProt P07766 23-126) (assay: SPR Biacore T200, CD3 epsilon homodimer immobilised on CM4, one-arm antibody as analyte, single-cycle kinetics; reference unaltered GLS3000 antibody;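 also: CD3 epsilon homodimer attached to the CM4 chip via amine coupling, measured at 25 °C with HBS-EP+ as running buffer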).
T1 construct: also called CD3 (CD3 epsilon)
T1 sequence (P07766 23-126): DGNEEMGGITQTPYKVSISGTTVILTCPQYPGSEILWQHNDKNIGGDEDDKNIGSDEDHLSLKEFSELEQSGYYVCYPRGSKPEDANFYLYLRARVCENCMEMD
Description: An appropriate amount of CD3 epsilon homodimer protein was immobilized onto Sensor chip CM4 (GE Healthcare Japan Corp.) by the amine coupling method. Then, the antibody having an appropriate concentration was injected thereto as an analyte and allowed to interact with the CD3 epsilon homodimer protein on the sensor chip. Then, the sensor chip was regenerated by the injection of 10 mmol/L glycine-HCl (pH 1.5). The assay was conducted at 25 degrees C., and HBS-EP+(GE Healthcare Japan Corp.) was used as a running buffer. […] Each parameter was calculated using Biacore T200 Evaluation Software (GE Healthcare Japan Corp.).
Specifically, when the amount of the GLS3000-containing antibody bound was defined as X and the amount of the L chain one-amino acid altered form bound was defined as Y, a value of Z (ratio of amounts bound)=Y/X was used.

Row | Binder | dissociation constant KD(M) ratio of L chain altered form to GLS3000
1 | B1 | 1.12 ratio
2 | B2 | 0.81 ratio
3 | B3 | 0.96 ratio
4 | B4 | 1.11 ratio
5 | B5 | 1.1 ratio
6 | B6 | 0.94 ratio
7 | B7 | 3.35 ratio
8 | B8 | 2.11 ratio
9 | B9 | 0.81 ratio
10 | B10 | 23.1 ratio
11 | B11 | 1.8 ratio
12 | B12 | 39.5 ratio
13 | B13 | 1.19 ratio
14 | B14 | 0.85 ratio
15 | B15 | 2.2 ratio
